Data: patent US20220403048A1, “BINDING MOLECULES TO ARGINASE II [ARG2]” (Cancer Research Technology Limited, priority 2019, published 2022)

Key:
human ARG2 = molecular target: T1, human ARG2 (Homo sapiens, UniProt P78540, E275H/R327K); assay: Bio-Layer Interferometry (OctetRED) binding kinetics, human ARG2
T1 construct: His10 (after a GGG linker) (C); made in house; host or cells: E. coli BL21 (DE3)
T1 sequence (P78540 23-354 E275H/R327K): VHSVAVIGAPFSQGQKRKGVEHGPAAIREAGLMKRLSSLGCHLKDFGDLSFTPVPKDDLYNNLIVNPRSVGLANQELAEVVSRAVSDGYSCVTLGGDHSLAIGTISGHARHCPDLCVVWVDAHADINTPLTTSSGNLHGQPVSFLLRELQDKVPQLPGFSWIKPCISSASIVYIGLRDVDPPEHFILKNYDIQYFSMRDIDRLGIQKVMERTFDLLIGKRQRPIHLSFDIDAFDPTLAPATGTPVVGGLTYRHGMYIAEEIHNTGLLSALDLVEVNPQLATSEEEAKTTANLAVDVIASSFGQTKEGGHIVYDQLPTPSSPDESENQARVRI
From the text: (§1) The OctetRED (Pall ForteBio) instrument was used to assess the kinetic parameters of the interactions between C0020187 and recombinantly produced human ARG2, cynomolgus ARG2 and human ARG1. The Octet biosensor uses an optical analytical technique that analyses the interference pattern of white light reflected from two surfaces: a layer of immobilised protein on the sensor tip, and an internal reference layer. Any changes in binding at the biosensor tip result in a shift in interference pattern, which can be measured in real time. Molecules associating with or dissociating from ligands at the biosensor tip shift the interference pattern and generate a response on the Octet system which is recorded by the acquisition software.
(§2) Typically, a defined concentration of the analyte species is brought into contact with the coupled ligand and any binding is detected as an increased in signal (association phase). This is followed by a period of buffer rinse, during which dissociation of the analyte species from the surface immobilised ligand can be observed as a decrease in signal (dissociation phase). Repetition of this with a range of analyte concentrations provides data for the analysis of binding kinetics.
(§3) An Octet Kinetics Buffer (PBS containing 0.01% BSA and 0.002% Tween20) is typically used as the diluent buffer for the analyte samples and as the flow buffer during the dissociation phase. The experimental data is recorded over time as shift in interference pattern (nm) over time, which is directly proportional to the optical thickness at the biosensor tip, which in turn is an approximate measure of the mass of analyte bound. The proprietary Octet Data Analysis software package can then be used to process data and fit binding models to the data sets. Returned association (ka, M^−1 s^−1) and dissociation (kd, s^−1) rate constants allow calculation of dissociation (KD, M) affinity constants.
(§4) The affinity of binding between the Fab of C0020187 and human ARG2, cynomolgus ARG2 and human ARG1 was estimated using assays in which the biotinylated ARG antigen was captured on a streptavidin sensor tip. A fresh sensor tip was used for each measurement and no regeneration was used. A series of dilutions of the C0020187 Fab (3.25-240 nM) were individually placed in contact with the ligand surface for a sufficient amount of time to observe sensorgrams that could be fitted to an appropriate binding model with confidence (typically 5 minutes), followed by an appropriate length of dissociation time (typically 10 minutes). Blank reference (0 nM Fab) data were subtracted from each dataset to reduce the impact of any buffer artefacts or non-specific binding effects. An appropriate binding model was then fitted simultaneously to the data from each analyte titration using the Octet Evaluation software.
(§5) Example results for C0020187 are shown in Table 9, showing the association rate constants (ka), dissociation rate constants (kd) and dissociation constants (KD). These parameters were derived from a 1:1 binding fit to the data.
(§6) The affinities of the affinity-matured antibodies to human ARG2 were measured on the OctetRED system as described in section 1.15 using the streptavidin capture method. Typically, an analyte titration range of 1.8 to 120 nM was used.
The affinities of the second-generation antibodies to human ARG2 were measured on the OctetRED system. A screening assay which stably captures His-tagged ARG2 as the ligand on an anti-His surface was utilised to screen the second-generation candidates as Fabs at an analyte range of 1.8 to 120 nM, with an association time of 5 minutes and a dissociation time of 10 minutes. Sensors were regenerated using 10 mM glycine pH 1.5 after each cycle. Based on this assay, six candidates with estimated affinities in the sub-nanomolar range were identified, and they were further profiled using an extended assay which is more suitable for antibodies of high affinities. […]

cynomolgus ARG2 = assay: Bio-Layer Interferometry (OctetRED) binding kinetics, cynomolgus ARG2; details: cyno ARG2 ligand
From the text: as §1, §2, §3, §4, §5, §6
The affinities of some of these antibodies to cynomolgus ARG2 were determined using the same assay, and the derived kinetic parameters are shown in Table 21.

[1] = second-generation Fab, extended assay: association 10 min, dissociation 40 min, 0.47 to 30 nM, streptavidin surface with bio-ARG2
[2] = second-generation Fab, same extended assay
[3] = Fab as analyte, streptavidin capture, analyte 1.8 to 120 nM, affinity-matured antibodies
[4] = Fab as analyte, affinity-matured antibodies

cynomolgus ARG2, sequence (as listed by the source): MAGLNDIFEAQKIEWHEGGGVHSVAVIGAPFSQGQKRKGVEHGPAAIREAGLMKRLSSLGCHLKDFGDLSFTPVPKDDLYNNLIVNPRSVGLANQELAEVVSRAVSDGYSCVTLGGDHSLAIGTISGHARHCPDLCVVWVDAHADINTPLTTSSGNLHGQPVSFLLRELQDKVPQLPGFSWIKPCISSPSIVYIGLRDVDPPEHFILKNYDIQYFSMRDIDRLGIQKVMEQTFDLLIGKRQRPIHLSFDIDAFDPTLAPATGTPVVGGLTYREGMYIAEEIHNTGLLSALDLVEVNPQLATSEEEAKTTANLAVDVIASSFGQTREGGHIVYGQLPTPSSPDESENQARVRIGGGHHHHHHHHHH

B1: C0021158 IgG: anti-ARG2 antibody, VH SEQ ID NO: 282, VL SEQ ID NO: 287; IgG and Fab versions carry these sequences (antibody, listed as Homo sapiens, V domains shown)
VH: EVQLLESGGGLVQPGGSLRLSCAASGFTFRYEVAAWVRQAPGKGLEWVSAISGPIPKGYYADSVKGRFTISRDNSKNTLYLQMNSLRAEDTAVYYCARLRADLGLYMDLWGRGTLVTVSS
VL: QSVLTQPPSVSAAPGQKVTISCSGSSSNIGNHYVSWYQQLPGTAPKLLIYDNSERTAGVPDRFSGSKSGTSATLGITGLQTGDEADYYCGTWDELTSNLVFGGGTKLTVL
modifications: C0021158 IgG
Human ARG2; [1]
  ka: 262000 M⁻¹ s⁻¹
  kd: 4.54e-05 s⁻¹
Cynomolgus ARG2; [2]
  ka: 429000 M⁻¹ s⁻¹
  kd: 4.64e-05 s⁻¹

B2: C0021177: anti-ARG2 antibody, VH SEQ ID NO: 322, VL SEQ ID NO: 327 (antibody, listed as Homo sapiens, V domains shown)
VH: EVQLLESGGGLVQPGGSLRLSCAASGFTFRYEVAAWVRQAPGKGLEWVSAISGPAPKGYYADSVKGRFTISRDNSKNTLYLQMNSLRAEDTAVYYCARLRADLGLYMDLWGRGTLVTVSS
VL: QSELTQPPTASAAPGQKVTISCSGSSSNIGNHYVSWYQQLPGTAPKLLIYDTTVLSSGIPDRFSGSKSGTSATLGITGLQTGDEADYYCGTWDELTSNLVFGGGTKLTVL
modifications: C0021177
Human ARG2; [1]
  ka: 202000 M⁻¹ s⁻¹
  kd: 3.51e-05 s⁻¹
Cynomolgus ARG2; [2]
  ka: 414000 M⁻¹ s⁻¹
  kd: 3.12e-05 s⁻¹

B3: C0021139: anti-ARG2 antibody, VH SEQ ID NO: 212, VL SEQ ID NO: 217 (antibody, listed as Homo sapiens, V domains shown)
VH: EVQLLESGGGLVQPGGSLRLSCAASGFTFQYDYQVWVRQAPGKGLEWVSAISGSGGSTYYADSVKGRFTISRDNSKNTLYLQMNSLRAEDTAVYYCARLRADLGLYMDLWGRGTLVTVSS
VL: QSVLTQPPSVSAAPGQKVTISCSGSSSNIGNHYVSWYQQLPGTAPKLLIYDNSERTSGIPDRFSGSKSGTSATLGITGLQTGDEADYYCGTWDELTSNLVFGGGTKLTVL
modifications: C0021139
Human ARG2; [3]
  ka: 198000 M⁻¹ s⁻¹
  kd: 0.000871 s⁻¹
Cynomolgus ARG2; [4]
  ka: 275000 M⁻¹ s⁻¹
  kd: 0.000724 s⁻¹

B4: C0021022: anti-ARG2 antibody, VH SEQ ID NO: 42, VL SEQ ID NO: 47 (antibody, listed as Homo sapiens, V domains shown)
VH: EVQLLESGGGLVQPGGSLRLSCAASGFTFSSYAMSWVRQAPGKGPEWVSAISGFSPYYADSVKGRFTISRDNSKNTLYLQMNSLRAEDTAVYYCARLRADLGLYMDLWGRGTLVTVSS
VL: QSVLTQPPSVSAAPGQKVTISCSGSSSNIGNHYVSWYQQLPGTAPKLLIYDNSERPSGIPDRFSGSKSGTSATLGITGLQTGDEADYYCGTWDSSLSALVFGGGTKLTVL
modifications: C0021022
Human ARG2; [3]
  ka: 412000 M⁻¹ s⁻¹
  kd: 0.00112 s⁻¹
Cynomolgus ARG2; [4]
  ka: 706000 M⁻¹ s⁻¹
  kd: 0.00117 s⁻¹

B5: C0021181: anti-ARG2 antibody, VH SEQ ID NO: 342, VL SEQ ID NO: 347 (antibody, listed as Homo sapiens, V domains shown)
VH: EVQLLESGGGLVRPGGSLRLSCAASEFTFRYDYHVWVRQAPGKGLEWVSAISGSGGSTYYADSVKSRFTISRDNSKNTLYLQMNSLRAEDTAVYYCARLRADLGLYMDLWGRGTLVTVSS
VL: QSVLTQPPSVSAAPGQKVAVSCSGSSSNIGSHYVSWYQQLPGTAPKLLIYDNSERTSGIPDRFSGSKSGTSATLGITGLQTGDEADYYCGTWDELTSNLVFGGGTRLTVL
modifications: C0021181
Human ARG2; [1]
  ka: 145000 M⁻¹ s⁻¹
  kd: 4.17e-05 s⁻¹
Cynomolgus ARG2; [2]
  ka: 257000 M⁻¹ s⁻¹
  kd: 4.43e-05 s⁻¹

B6: C0021180: anti-ARG2 antibody, VH SEQ ID NO: 332, VL SEQ ID NO: 337 (antibody, listed as Homo sapiens, V domains shown)
VH: EVQLLESGGGLVQPGGSLRLSCAASGFTFRYEVAAWVRQAPGKGLEWVSAISGPIPKGYYADSVKGRFTISRDNSKNTLYLQMNSLRAEDTAVYYCARLRADLGLYMDLWGRGTLVTVSS
VL: QSVLTQPPTVSAAPGRKVTISCSGSSSNIGDHHVSWYQQLPGAAPKLLIYDTDHMASGIPDRFSGSRSGTSATLGITGLQTGDEADYYCGTWDSSLSALVFGGGTKLTVL
modifications: C0021180
Human ARG2; [1]
  ka: 278000 M⁻¹ s⁻¹
  kd: 0.000122 s⁻¹
Cynomolgus ARG2; [2]
  ka: 381000 M⁻¹ s⁻¹
  kd: 0.000135 s⁻¹

B7: C0021133: anti-ARG2 antibody, VH SEQ ID NO: 192, VL SEQ ID NO: 197 (antibody, listed as Homo sapiens, V domains shown)
VH: EVQLLESGGGLVQPGGSLRLSCAASGFTFRYDHHVWVRQAPGKGLEWVSAISGSGGSTYYADSVKGRFTISRDNSKNTLYLQMNSLRAEDTAVYYCARLRADLGLYMDLWGRGTLVTVSS
VL: QSVLTQPPSVSAAPGQKVTVSCSGSSSNIGNHYVSWYQQLPGTAPKLLIYDTTVLSSGIPDRFSGSKSGTSATLGITGLQTGDEADYYCGTWDELTSNLVFGGGTKLTVL
modifications: C0021133
Human ARG2; [3]
  ka: 219000 M⁻¹ s⁻¹
  kd: 0.000449 s⁻¹
Cynomolgus ARG2; [4]
  ka: 328000 M⁻¹ s⁻¹
  kd: 0.000549 s⁻¹

B8: C0021061: anti-ARG2 antibody, first generation lead, VH SEQ ID NO: 62, VL SEQ ID NO: 67 (antibody, listed as Homo sapiens, V domains shown)
VH: EVQLLESGGGLVQPGGSLRLSCAASGFTFSSYAMSWVRQAPGKGLEWVSAKPTDAGSTYYADSVKGRFTISRDNSKNTLYLQMNSLRAEDTAVYYCARLRADLGLYMDLWGRGTLVTVSS
VL: QSVLTQPPSVSAAPGQKVTISCSGSSSNIGNHYVSWYQQLPGTAPKLLIYNTVYPKSGIPDRFSGSKSGTSATLGITGLQTGDEADYYCGTWDSSLSALVFGGGTKLTVL
modifications: C0021061
Human ARG2; [3]
  ka: 271000 M⁻¹ s⁻¹
  kd: 0.000351 s⁻¹
Cynomolgus ARG2; [4]
  ka: 310000 M⁻¹ s⁻¹
  kd: 0.000296 s⁻¹

B9: C0021092: anti-ARG2 antibody, VH SEQ ID NO: 92, VL SEQ ID NO: 97 (antibody, listed as Homo sapiens, V domains shown)
VH: EVQLLESGGGLVQPGGSLRLSCAASGFTFSRYAMSWVRQAPGKGLEWVSAHTHSPGSTYYADSVKGRFTISRDNSKNTLYLQMNSLRAEDTAVYYCARLRADLGLYMDLWGRGTLVTVSS
VL: QSVLTQPPSVSAAPGQKVTISCSGSSSNIGNHYVSWYQQLPGTAPKLLIYNSVARPSGIPDRFSGSKSGTSATLGITGLQTGDEADYYCGTWDSSLSALVFGGGTKLTVL
modifications: C0021092
Human ARG2; [3]
  ka: 280000 M⁻¹ s⁻¹
  kd: 0.000755 s⁻¹
Cynomolgus ARG2; [4]
  ka: 354000 M⁻¹ s⁻¹
  kd: 0.000726 s⁻¹

B10: C0021065: anti-ARG2 antibody, VH SEQ ID NO: 72, VL SEQ ID NO: 77 (antibody, listed as Homo sapiens, V domains shown)
VH: EVQLLESGGGLVQPGGSLRLSCAASGFTFSSYAMSWVRQAPGKGPEWVSAISGFSPYYADSVKGRFTISRDNSRNTLYLQMNSLRAEDTAVYYCARLRADLGLYMDLWGRGTLVTVSS
VL: QSVLTQPPSVSAAPGQKVTISCSGSSSNIGNHYVSWYQQLPGTAPKLLIYDTDHMASGIPDRFSGSKSGTSATLGITGLQTGDEADYYCGTWDSSLSALVFGGGTKLTVL
modifications: C0021065
Human ARG2; [3]
  ka: 409000 M⁻¹ s⁻¹
  kd: 0.000665 s⁻¹
Cynomolgus ARG2; [4]
  ka: 617000 M⁻¹ s⁻¹
  kd: 0.000782 s⁻¹
